# Data as given in the nanobody polyreactivity screen of Harvey et al. (2022).
# Experiment: yeast display, Sf9 membrane polyspecificity reagent, FACS + sequencing; frameworks hold sequencing errors
# In short: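 Nanobodies from a synthetic yeast display library (Saccharomyces cerevisiae BJ5465), induced 36–48 hours with galactose, were stained 1 hour at 4 °C with 10% biotinylated, detergent-solubilized Sf9 membrane reagent, enriched on streptavidin microbeads, then FACS-sorted. Anti-HA (expression) and streptavidin (reagent binding) fluorescence set low and high (top ~1%) gates. Polyreactivity labels come from the gate of origin. Genes were colony-PCR amplified, MiSeq 2 × 250 sequenced and filtered by CDR length.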
row,Sequence,polyreactivity (PSR sort gate)
1,QVQLVESGGGLVQAGGSLRLSCAASGRTFAFNAMGWYRPAPGKERELVAAIRWSGGCTYYADSVKGRFTISRDSPKNTVSLQMNTLKPEDTAVYYCAAYEKRLGYDYWGQGTQVTVSS,high polyreactivity
2,QVQLVESGGGLVQAGGSLRLSCAASGRTFAFYAMGWYRQAPGKERELVASIRGGGGTNYADSVKGRFTISRDNAKNTVYLQMNSLKTEDTAVYYCAARGYGYRGYYYWGQGTQVTVSS,high polyreactivity
3,QVQLVESGGGLVQAGGSLRLSCAASGRTFAFYAMGWYRQAPGKERELVASISSSGDRTYYADSVKGRFTISRDNAKNTVYLQMNSLKPEDTAVYYCAARWRYTYYYWGQGTQVTVSS,high polyreactivity
4,QVQLVESGGGLVQAGGSLRLSCAASGRTFAGNAMGWYRQATGKERELVASITWTGGRTYYADSVKGRFTISRDNAKNTVYLQMNSLKPEDTAVYYCAARPDYYYFRGDYWGQGTQVTVSS,high polyreactivity
5,QVQLVESGGGLVQAGGSLRLSCAASGRTFAINVMGWYRQAPGKEMELVASIRGRGGRTNYADSVKGRFTISRDNAKNSVYLQMNSLKPEDTAVYYCAAAYTGGGQYEYEYWGQGTQVTVSS,high polyreactivity
6,QVQLVESGGGLVQAGGSLRLSCAASGRTFAIYAMGWYRQAPGKERELVATIRGGSTYYADSVKGRFTISRDNAKNTVYLQMNSLKPEDTAVYYCAAGWYRYYGGFGYWGQGTQVTVSS,high polyreactivity
7,QVQLVESGGGLVQAGGSLRLSCAASGRTFALNTMGWYRQAPGKERELVAAITIGGSTYYADSVKGRFTISRDNAKNTVYLQMNSLKPEDTAVYYCAARTRGAWAYWGQGTQVTVSS,high polyreactivity
8,QVQLVESGGGLVQAGGSLRLSCAASGRTFALYAMGWYRQAPGKERELVASISWRGGSTYYADSVKGRFTISRDNAKNTVYLQMNSLKPEDTAVYYCAADTWSYGPLNYRLEYWGQGTQVTVSS,low polyreactivity
9,QVQLVESGGGLVQAGGSLRLSCAASGRTFALYTMGWYRQAPGKERELVAAINWSGTSTYYADSVKGRFTISRDTAKNTVYLQMNSLKPEDTAVYYCNARGQYNRLMDYWGQGTKVTVSS,low polyreactivity
10,QVQLVESGGGLVQAGGSLRLSCAASGRTFANYAMGWYRQAPGKERELVAAISFSTVSTYYADSVKGRFTISRDNAKNTVYLQMNSLKPEDTAVYYCAARRLGYYRKVKELDYWGQGTQVTVSS,high polyreactivity
11,QVQLVESGGGLVQAGGSLRLSCAASGRTFANYVMGWYRQAPGKERELVAGMTGSGGSTYYADSVKGRFTISRDNAKNTVYLQMNSLKPEDTAVYYCAKRYVYVASMGYWGQGTQVTVSS,high polyreactivity
12,QVQLVESGGGLVQAGGSLRLSCAASGRTFAPYAMGWSRQAPGKEREFVAGITWSSSSTYADSVKGRFTISRDNAKNTVYLQMNSLKPEDTAVYYCAARHAKGGNRHYYWGQGTQVTVSS,high polyreactivity
13,QVQLVESGGGLVQAGGSLRLSCAASGRTFAPYAMGWYRQAPGKERELVAAIRWTGTSTYYADSVKGRFTISRDNAKNTVYLQMNSLKPEDTAVYYCNADLYNREGWGQGTQVTVSS,high polyreactivity
14,QVQLVESGGGLVQAGGSLRLSCAASGRTFARNAMGWYRQAPGKDRELVAAISSSGGSTYYADSVKGRFTISRDNAKNTVYLQMNSLKPEDTAVYYCAARSRHAYGYWGQGTQVTVSS,high polyreactivity
15,QVQLVESGGGLVQAGGSLRLSCAASGRTFARYAMGWYRQAPGKERDLVADITSGGSTNYADSVKGRFTISRDNAKNTVYLQMNSLEPEDTAVYYCAAYVVWSWFEEYEYWGQGTQVTVSS,high polyreactivity
16,QVQLVESGGGLVQAGGSLRLSCAASGRTFARYTMGWYRQAPGKERELVASITRGGSTYYADSVKGRFTISRDNAKNTVYVQMNSLKPEDTAVYYCAARFPQHNYWAMDYWGQGTQVTVSS,high polyreactivity
17,QVQLVESGGGLVQAGGSLRLSCAASGRTFARYVMGWYRQAPGKERELVASISNSGGSTYYADSVKGRFTISRDNAKNTVYLQMNSLKPEDTAVYYCARRYYSYTTYRYDYWGQGTQVTVSS,high polyreactivity
18,QVQLVESGGGLVQAGGSLRLSCAASGRTFASNALGWYRQAPGKERELVADISSSGGTTYYADSVKGRFTISRDNAKNTVYLQMNSLKPEDTAVYYCAAVSSQDDPVKAWDYDYWGQGTQVTVSS,low polyreactivity
19,QVQLVESGGGLVQAGGSLRLSCAASGRTFASNDMGWYRQAPGKERELVADINNGARTYYADSVKGRFTISRDNAKNTVYLQMNSLKPEDTAVYYCNARPWYWWEGRYDYWGQGTQVTVSS,high polyreactivity
20,QVQLVESGGGLVQAGGSLRLSCAASGRTFASYAMGWYRPAPGKEREFVAVISVNGGNTYYADSVKGRFTISRDNAKNTVYLQMNSLKPEDTAVYYCARFDGWYQGYYPLYEFDYWGQGTQVTVSS,high polyreactivity
21,QVQLVESGGGLVQAGGSLRLSCAASGRTFASYAMGWYRQAPGKERELVATIRRSGTSTYYADSVKGRFTISRDNAKNTVYLQMNSLKPEDTAVYYCAALRSLLYRTYGYWGQGTQVTVSS,low polyreactivity
22,QVQLVESGGGLVQAGGSLRLSCAASGRTFATNVMGWYRQAPGKERELVAAISRSGGRTYYADSVKGRFTISRDNAKNTVYLQMNSLKPEDTAVYYCAARRRRFYYQYYRYDYWGQGTQVTVSS,high polyreactivity

row,Sequence,polyreactivity (PSR sort gate)
1,QVQLVESGGGLVQAGGSLRLSCAASGRTFAVYAMGWYRQAPGKERELVAAITRSGGSTYYADSVKGRFTISRDNAKNTVYLQMNSLKPEDTAVYYCAAGGQARHDYWGQGTQVTVSS,low polyreactivity
2,QVQLVESGGGLVQAGGSLRLSCAASGRTFAWYAMGWYRQAPGKERELVAVIRRGSGDTYYADSVKGRFTISRDNAKNTVYLQMNSLKPEDTAVYYCAAKSVAYKTRAGGVRYESWGQGTQVTVSS,high polyreactivity
3,QVQLVESGGGLVQAGGSLRLSCAASGRTFAYNAMGWYRQAPGKERELVAAISGNGGRTYYADSVKGRFTISRDNAKNTVYLQMNSLKPEDTAVYYCNAAVGYYSYSYYTKVGVDYWGQGTQVTVSS,high polyreactivity
4,QVQLVESGGGLVQAGGSLRLSCAASGRTFAYNAMGWYRQAPGKERELVADITSGGSTYYADSVKGRFTISRDNAKNTVYLQMNRLKPEDTAVYYCAAYPQFWYWDYNYWGQGTQVTVSS,high polyreactivity
5,QVQLVESGGGLVQAGGSLRLSCAASGRTFAYNDRGWYRQATGKERELVAAISWSDGTTYYADSVKGRFTISRDNAKNTVYLQMYSLKPEDTAVYDCAAESYPAVVASYVSEFDYWGQGTQVPVSS,low polyreactivity
6,QVQLVESGGGLVQAGGSLRLSCAASGRTFAYNTMGWYRQAPGKERELVAAISTSGVRTFYADSVKGRFTISRDNAKNTVYLQMNSLKPEDTAVYSYDWGQGTQVTVSS,low polyreactivity
7,QVQLVESGGGLVQAGGSLRLSCAASGRTFAYYAMGWYKQAPGKERELVAAISWSGGSTYYADSVKGRFTISRDNAKNTVYLQMNSLKPEDTAVYYCAARRYGVPPTYDYWGQGTQVTVSW,high polyreactivity
8,QVQLVESGGGLVQAGGSLRLSCAASGRTFAYYAMGWYRQAPGKERELVAAIDSSGGSTYYADSVKARFTISRDNAKNTVYLQMNSLKPEDTADYYCAASYPYDRYDQGGYGYWGQGTQVTVSS,low polyreactivity
9,QVQLVESGGGLVQAGGSLRLSCAASGRTFAYYVMGWYRPAPGKERQLVAAINRSDGSTSYADSVKGRFTISRDNAKNTVYLQMNSLKPEDTAVYYCAKSKPVGPYYYWGQGTQVTVSS,high polyreactivity
10,QVQLVESGGGLVQAGGSLRLSCAASGRTFCGNVMGWYRQAPGKERELVAAITNGASTNYADSVKGRFTISRDNAKNTVYLQMNSLKPEDTAVYYCAASANNWRRRGRSYEYWGQGTQVTVSS,low polyreactivity
11,QVQLVESGGGLVQAGGSLRLSCAASGRTFCRYPMGWYRQAPGKERELVAAISSSGITYYAESVKGRFTISRDNAKNTVYLQMNSLKPEDTEVYYCAVRWGRGFWGQGTQVTVSS,high polyreactivity
12,QVQLVESGGGLVQAGGSLRLSCAASGRTFDAYAMGWYRQAPGKERELVATITSGGGTYYADSVKGRFTISRDNAKNTVYLQMNSLKPEDTAVYYCKKRYVVSRKYDYWGQGTQVTVSS,low polyreactivity
13,QVQLVESGGGLVQAGGSLRLSCAASGRTFDDYAMGWYIQAPGKERELVAGIRWSVGNTDYADSVKGRFTISRDNAKNTVYLQMNSLKPEDTAVYYCNARPFLTVLYLFYGNNYDYWGQGTQVTVSS,low polyreactivity
14,QVQLVESGGGLVQAGGSLRLSCAASGRTFDEYAMGWYRQAPGKERELVDAINSSGNTYYADSVKGRFTISRDNAKNTVYLQMNSLKPEDTAVYYCAVRSYNTIYDDMDYWGQGTQVTVSS,low polyreactivity
15,QVQLVESGGGLVQAGGSLRLSCAASGRTFDHNAMGWYRQAPGKERELVAAITSRGGSTYYADSVKGRFTISRDNAKNTVYLQMNSLKPEDTAVYYCNRYKSSSYIRGDYWGQGTQVTVSS,high polyreactivity
16,QVQLVESGGGLVQAGGSLRLSCAASGRTFDIYAMGWYRQAHGKERELVAAISSGGSTYYADSVKGRFTISRDNAKNTVYLQMNSLKPEDTAVYYCAVRWYDQVSRRGIGYYWGQGTQVTVSS,low polyreactivity
17,QVQLVESGGGLVQAGGSLRLSCAASGRTFDIYAMGWYRQAPGKERELVAAISSGGSTYYADSVKGRFTISRDNAKNTVYLQMNSLKPEDTAVYYCAVRWYDQVSRRGIGYYWGQGTQVTVSS,low polyreactivity
18,QVQLVESGGGLVQAGGSLRLSCAASGRTFDLNAMGWYRQAPGKERELVAAISFSVADTYYADSVKGRFTISRDNAKNTVYLQMNSLKPEDTAVYYCAADSELGSLSGESDYWGQGTQVTVSS,low polyreactivity
19,QVQLVESGGGLVQAGGSLRLSCAASGRTFDLYAMGWYRQAPGKERELVARITNIDDSTYYADSVKGRFTISRDYAKNTVYLQMNSLKPEDTAVYYCNAASYSRGPARYDYWGQGTQVTVSS,high polyreactivity
20,QVQLVESGGGLVQAGGSLRLSCAASGRTFDPYAMGWYRQAPGKDRELVAAISRSGGSTYYADSVKGRFTISRDNAKNTVYLQMNSLKPEDTAVYYCAADASRYYYEYDYWGQGTQVTVSS,high polyreactivity
21,QVQLVESGGGLVQAGGSLRLSCAASGRTFDQYAMGWYTPAPGKARELVADITWSGGTTRYADSVKRRFTISRDNAKNTVYLQMNSLKPEDTAVYYCAVDVTCGYNYWGQGTQVNVSS,low polyreactivity
